Patent US20190375786A1, “STABLE PEPTIDES AND METHODS OF USE THEREOF” (Fred Hutchinson Cancer Research Center, priority 2016, published 2019)

Target: trypsin (Sus scrofa, UniProt P00761)
Assay: Trypsin digestion resistance of soluble peptide, RP-HPLC
Format: in vitro ADME, porcine
Set-up: purchased Sigma Aldrich 6567
Conditions: 500 U/ml trypsin, 30 minutes at 37.5° C.; HPLC peak vs untreated peptide
Method in brief: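 Read-out was RP-HPLC (C-18, water/acetonitrile with 0.1% TFA, 5-45% over 10 min) of peptide left after trypsin treatment. Digest: 12.5 μg peptide, 500 U/ml porcine trypsin, PBS, 37.5° C for 30 min, stopped by soybean trypsin inhibitor; samples then reduced (10 mM DTT) or left non-reduced.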

trypsin, sequence (P00761 9-231): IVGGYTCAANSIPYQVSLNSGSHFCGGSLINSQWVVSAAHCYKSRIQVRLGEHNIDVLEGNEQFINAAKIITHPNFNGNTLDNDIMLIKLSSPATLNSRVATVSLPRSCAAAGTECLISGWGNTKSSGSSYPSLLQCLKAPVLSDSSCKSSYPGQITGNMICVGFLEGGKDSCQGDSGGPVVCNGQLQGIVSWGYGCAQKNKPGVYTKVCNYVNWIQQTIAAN

Row | Substance | Resistance to Trypsin (500 U/ml)
1 | 47 (GSAQEPVKGPVSTKPGSCPIILIRCAMLNPPNRCLKDTDCPGIKKCCEGSCGMACFVPQ) [compound 47] | Low (A peptide classified as low indicates that the majority (over 75%) of the HPLC peak of the treated peptide disappeared as compared to the HPLC peak of the untreated peptide)
2 | 4 (GSGDCLPHLKRCKENNDCCSKKCKRRGANPEKRCR) [compound 4] | Low (A peptide classified as low indicates that the majority (over 75%) of the HPLC peak of the treated peptide disappeared as compared to the HPLC peak of the untreated peptide)
3 | 16 (GSSCAKPGEMCMRIKCCDGQCGCNRGTGRCFCK) [compound 16] | Low (A peptide classified as low indicates that the majority (over 75%) of the HPLC peak of the treated peptide disappeared as compared to the HPLC peak of the untreated peptide)
4 | 19 (GSQDKCKKVYENYPVSKCQLANQCNYDCKLDKHARSGECFYDEKRNLQCICDYCEY) [compound 19] | High (A peptide classified as high indicates that the majority (at least 75%) of the HPLC peak of the treated peptide is still present as compared to the HPLC peak of the untreated peptide)
5 | 15 (GSCIGEGVPCDENDPRCCFGLVCLKPTLHGIWYKSYYCYKK) [compound 15] | Low (A peptide classified as low indicates that the majority (over 75%) of the HPLC peak of the treated peptide disappeared as compared to the HPLC peak of the untreated peptide)
6 | 11 (GSNCAGYMRECKEKLCCSGYVCSSRWKWCVLPAPWRR) [compound 11] | High (A peptide classified as high indicates that the majority (at least 75%) of the HPLC peak of the treated peptide is still present as compared to the HPLC peak of the untreated peptide)
7 | 7 (GSDRDSCIDKSRCSKYGYYQECQDCCKKAGHNGGTCMFFKCKCA) [compound 7] | Low (A peptide classified as low indicates that the majority (over 75%) of the HPLC peak of the treated peptide disappeared as compared to the HPLC peak of the untreated peptide)
8 | 21 (GSRCQLQGFNCVVRSYGLPTIPCCRGLTCRSYFPGSTYGRCQRY) [compound 21] | Moderate (A peptide classified as medium indicates that about half (between 25% and 75%) of the HPLC peak of the treated peptide disappeared as compared to the HPLC peak of the untreated peptide)

Tested on: not listed separately
Assay: Resistance to elevated temperature, HPLC
Format: physicochemical
Conditions: 75° C. for one hour; HPLC peak vs untreated peptide
Method in brief: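 Peptides were incubated at room temperature, 70° C or 100° C for one hour in ddH2O; another protocol used 70° C, 75° C or 100° C for one hour in 0.5 mM PBS, then pelleting and analysis of the supernatant. Remaining peptide was measured by C-18 RP-HPLC, 5–45% acetonitrile/0.1% TFA over 10 min.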

Row | Substance | Resistance to Temperature (75° C.)
9 | 47 (GSAQEPVKGPVSTKPGSCPIILIRCAMLNPPNRCLKDTDCPGIKKCCEGSCGMACFVPQ) [compound 47] | High (A peptide classified as high indicates that the majority (at least 75%) of the HPLC peak of the treated peptide is still present as compared to the HPLC peak of the untreated peptide)
10 | 4 (GSGDCLPHLKRCKENNDCCSKKCKRRGANPEKRCR) [compound 4] | High (A peptide classified as high indicates that the majority (at least 75%) of the HPLC peak of the treated peptide is still present as compared to the HPLC peak of the untreated peptide)
11 | 16 (GSSCAKPGEMCMRIKCCDGQCGCNRGTGRCFCK) [compound 16] | High (A peptide classified as high indicates that the majority (at least 75%) of the HPLC peak of the treated peptide is still present as compared to the HPLC peak of the untreated peptide)
12 | 19 (GSQDKCKKVYENYPVSKCQLANQCNYDCKLDKHARSGECFYDEKRNLQCICDYCEY) [compound 19] | High (A peptide classified as high indicates that the majority (at least 75%) of the HPLC peak of the treated peptide is still present as compared to the HPLC peak of the untreated peptide)
13 | 15 (GSCIGEGVPCDENDPRCCFGLVCLKPTLHGIWYKSYYCYKK) [compound 15] | High (A peptide classified as high indicates that the majority (at least 75%) of the HPLC peak of the treated peptide is still present as compared to the HPLC peak of the untreated peptide)
14 | 11 (GSNCAGYMRECKEKLCCSGYVCSSRWKWCVLPAPWRR) [compound 11] | High (A peptide classified as high indicates that the majority (at least 75%) of the HPLC peak of the treated peptide is still present as compared to the HPLC peak of the untreated peptide)
15 | 7 (GSDRDSCIDKSRCSKYGYYQECQDCCKKAGHNGGTCMFFKCKCA) [compound 7] | High (A peptide classified as high indicates that the majority (at least 75%) of the HPLC peak of the treated peptide is still present as compared to the HPLC peak of the untreated peptide)
16 | 21 (GSRCQLQGFNCVVRSYGLPTIPCCRGLTCRSYFPGSTYGRCQRY) [compound 21] | High (A peptide classified as high indicates that the majority (at least 75%) of the HPLC peak of the treated peptide is still present as compared to the HPLC peak of the untreated peptide)

Same assay, conditions: 100° C. for one hour; HPLC peak vs untreated peptide

Row | Substance | Resistance to Temperature (100° C.)
17 | 47 (GSAQEPVKGPVSTKPGSCPIILIRCAMLNPPNRCLKDTDCPGIKKCCEGSCGMACFVPQ) [compound 47] | Low (A peptide classified as low indicates that the majority (over 75%) of the HPLC peak of the treated peptide disappeared as compared to the HPLC peak of the untreated peptide)
18 | 4 (GSGDCLPHLKRCKENNDCCSKKCKRRGANPEKRCR) [compound 4] | Low (A peptide classified as low indicates that the majority (over 75%) of the HPLC peak of the treated peptide disappeared as compared to the HPLC peak of the untreated peptide)
19 | 16 (GSSCAKPGEMCMRIKCCDGQCGCNRGTGRCFCK) [compound 16] | Low (A peptide classified as low indicates that the majority (over 75%) of the HPLC peak of the treated peptide disappeared as compared to the HPLC peak of the untreated peptide)
20 | 19 (GSQDKCKKVYENYPVSKCQLANQCNYDCKLDKHARSGECFYDEKRNLQCICDYCEY) [compound 19] | Moderate (A peptide classified as medium indicates that about half (between 25% and 75%) of the HPLC peak of the treated peptide disappeared as compared to the HPLC peak of the untreated peptide)
21 | 15 (GSCIGEGVPCDENDPRCCFGLVCLKPTLHGIWYKSYYCYKK) [compound 15] | Low (A peptide classified as low indicates that the majority (over 75%) of the HPLC peak of the treated peptide disappeared as compared to the HPLC peak of the untreated peptide)
22 | 11 (GSNCAGYMRECKEKLCCSGYVCSSRWKWCVLPAPWRR) [compound 11] | Low (A peptide classified as low indicates that the majority (over 75%) of the HPLC peak of the treated peptide disappeared as compared to the HPLC peak of the untreated peptide)
23 | 7 (GSDRDSCIDKSRCSKYGYYQECQDCCKKAGHNGGTCMFFKCKCA) [compound 7] | High (A peptide classified as high indicates that the majority (at least 75%) of the HPLC peak of the treated peptide is still present as compared to the HPLC peak of the untreated peptide)
24 | 21 (GSRCQLQGFNCVVRSYGLPTIPCCRGLTCRSYFPGSTYGRCQRY) [compound 21] | Low (A peptide classified as low indicates that the majority (over 75%) of the HPLC peak of the treated peptide disappeared as compared to the HPLC peak of the untreated peptide)

Tested on: not listed separately
Assay: Resistance to reduction by DTT, RP-HPLC
Format: physicochemical
Conditions: 10 mM DTT in PBS, room temperature, 30 minutes; HPLC peak vs untreated peptide
Method in brief: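 Peptide (12.5 μg from a 2 mg/ml stock, or 0.015 mM final in PBS) was held 30 min at room temperature with or without 10 mM DTT. Reduced and non-reduced forms were compared by C-18 RP-HPLC using a 5–45% acetonitrile/0.1% TFA gradient over 10 min, with detection at 214 and 280 nm.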

Row | Substance | Resistance to DTT Reduction (10 mM)
25 | 47 (GSAQEPVKGPVSTKPGSCPIILIRCAMLNPPNRCLKDTDCPGIKKCCEGSCGMACFVPQ) [compound 47] | Low (A peptide classified as low indicates that the majority (over 75%) of the HPLC peak of the treated peptide disappeared as compared to the HPLC peak of the untreated peptide)
26 | 4 (GSGDCLPHLKRCKENNDCCSKKCKRRGANPEKRCR) [compound 4] | Low (A peptide classified as low indicates that the majority (over 75%) of the HPLC peak of the treated peptide disappeared as compared to the HPLC peak of the untreated peptide)
27 | 16 (GSSCAKPGEMCMRIKCCDGQCGCNRGTGRCFCK) [compound 16] | Low (A peptide classified as low indicates that the majority (over 75%) of the HPLC peak of the treated peptide disappeared as compared to the HPLC peak of the untreated peptide)
28 | 19 (GSQDKCKKVYENYPVSKCQLANQCNYDCKLDKHARSGECFYDEKRNLQCICDYCEY) [compound 19] | Low (A peptide classified as low indicates that the majority (over 75%) of the HPLC peak of the treated peptide disappeared as compared to the HPLC peak of the untreated peptide)
29 | 15 (GSCIGEGVPCDENDPRCCFGLVCLKPTLHGIWYKSYYCYKK) [compound 15] | Low (A peptide classified as low indicates that the majority (over 75%) of the HPLC peak of the treated peptide disappeared as compared to the HPLC peak of the untreated peptide)
30 | 11 (GSNCAGYMRECKEKLCCSGYVCSSRWKWCVLPAPWRR) [compound 11] | Low (A peptide classified as low indicates that the majority (over 75%) of the HPLC peak of the treated peptide disappeared as compared to the HPLC peak of the untreated peptide)
31 | 7 (GSDRDSCIDKSRCSKYGYYQECQDCCKKAGHNGGTCMFFKCKCA) [compound 7] | Low (A peptide classified as low indicates that the majority (over 75%) of the HPLC peak of the treated peptide disappeared as compared to the HPLC peak of the untreated peptide)
32 | 21 (GSRCQLQGFNCVVRSYGLPTIPCCRGLTCRSYFPGSTYGRCQRY) [compound 21] | Low (A peptide classified as low indicates that the majority (over 75%) of the HPLC peak of the treated peptide disappeared as compared to the HPLC peak of the untreated peptide)

Target: pepsin (Sus scrofa, UniProt P00791)
Sequence (P00791 60-385): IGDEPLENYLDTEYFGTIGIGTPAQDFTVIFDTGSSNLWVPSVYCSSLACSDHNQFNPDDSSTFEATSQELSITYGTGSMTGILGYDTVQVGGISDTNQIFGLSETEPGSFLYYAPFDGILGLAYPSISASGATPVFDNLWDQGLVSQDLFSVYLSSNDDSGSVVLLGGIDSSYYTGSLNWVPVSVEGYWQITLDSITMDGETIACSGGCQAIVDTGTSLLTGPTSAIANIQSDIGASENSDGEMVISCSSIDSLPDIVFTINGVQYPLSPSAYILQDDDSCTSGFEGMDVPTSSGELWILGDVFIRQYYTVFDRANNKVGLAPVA
Assay: Pepsin digestion resistance in simulated gastric fluid, RP-HPLC
Format: in vitro ADME, porcine
Set-up: purchased Sigma Aldrich P7012
Conditions: 500 U/ml pepsin in SGF pH 1.05, 30 minutes at 37.5° C.; HPLC peak vs untreated peptide
Method in brief: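 Digestion resistance read by reversed-phase HPLC (C-18, 0.1% TFA, 5–45% acetonitrile over 10 min; 214/280 nm) after 12.5 μg peptide spent 30 min at 37.5 °C in pH 1.05 simulated gastric fluid, with or without 500 U/ml pepsin. Some samples quenched with Tris base and DTT.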

Row | Substance | Resistance to Pepsin (500 U/ml)
33 | 47 (GSAQEPVKGPVSTKPGSCPIILIRCAMLNPPNRCLKDTDCPGIKKCCEGSCGMACFVPQ) [compound 47] | Low (A peptide classified as low indicates that the majority (over 75%) of the HPLC peak of the treated peptide disappeared as compared to the HPLC peak of the untreated peptide)
34 | 4 (GSGDCLPHLKRCKENNDCCSKKCKRRGANPEKRCR) [compound 4] | High (A peptide classified as high indicates that the majority (at least 75%) of the HPLC peak of the treated peptide is still present as compared to the HPLC peak of the untreated peptide)
35 | 16 (GSSCAKPGEMCMRIKCCDGQCGCNRGTGRCFCK) [compound 16] | High (A peptide classified as high indicates that the majority (at least 75%) of the HPLC peak of the treated peptide is still present as compared to the HPLC peak of the untreated peptide)
36 | 19 (GSQDKCKKVYENYPVSKCQLANQCNYDCKLDKHARSGECFYDEKRNLQCICDYCEY) [compound 19] | High (A peptide classified as high indicates that the majority (at least 75%) of the HPLC peak of the treated peptide is still present as compared to the HPLC peak of the untreated peptide)
37 | 15 (GSCIGEGVPCDENDPRCCFGLVCLKPTLHGIWYKSYYCYKK) [compound 15] | High (A peptide classified as high indicates that the majority (at least 75%) of the HPLC peak of the treated peptide is still present as compared to the HPLC peak of the untreated peptide)
38 | 11 (GSNCAGYMRECKEKLCCSGYVCSSRWKWCVLPAPWRR) [compound 11] | High (A peptide classified as high indicates that the majority (at least 75%) of the HPLC peak of the treated peptide is still present as compared to the HPLC peak of the untreated peptide)
39 | 7 (GSDRDSCIDKSRCSKYGYYQECQDCCKKAGHNGGTCMFFKCKCA) [compound 7] | High (A peptide classified as high indicates that the majority (at least 75%) of the HPLC peak of the treated peptide is still present as compared to the HPLC peak of the untreated peptide)
40 | 21 (GSRCQLQGFNCVVRSYGLPTIPCCRGLTCRSYFPGSTYGRCQRY) [compound 21] | High (A peptide classified as high indicates that the majority (at least 75%) of the HPLC peak of the treated peptide is still present as compared to the HPLC peak of the untreated peptide)
